According to the DeepSol protein solubility set:

Assay: soluble on expression in E. coli; label from the status in PepcDB or PDB records

Sequence | soluble on expression in E. coli
MPHPAPNAAAPRVHIIGAGMAGLACAVRLVSHGRAVSLHEAAGQAGGRCRSFVDASLDRLIDNGNHLLLSGNRAVNAFLATIGASDRLDGPERARFPFLDVETGERWCLTPSAGPVPWWLLRADRRIPGTRARDYLEGLKLARASDADRVADLLTPGTPLYRRFWAPLTVGVLNAAPEEAAAALLWPVIKETFGRGEAACRPRMARNGLSDSFVTPALAWLTARGAEIAFNHRLRAIEYGDGRPAALVFSEETPLRLGPADQVVLAVPPAVAAGLLPGLTVPEGSRCIVNAHFRLDHAPEGFADDFEGPLGVIGGTAEWLFVRGDVASVTVSAADALAALDPDEIAARIWRDVALALGLDAAARPPVRIIKEKRATFAQTPDQLCRRPPTRPPGYGLCLAGDWTHTGLPATIEGALRSGEAAADAALHWRFTLEHHHHHH | not soluble
MSTQYLNSNLKVFSLNSNKELAEQIAKHIGVGLGKCSVDRFSDGEVQINIEESIRGCDVFIIQSTSFPVNEHIMELLIMIDALKRASAKTINIVIPYYGYARQDRKARSREPITSKLVANLLETAGATRVITLDLHAPQIQGFFDIPIDHLMGVPILSDYFETKGLKDIVIVSPDHGGVTRARKMADRLKAPIAIIDKRRPRPNVSEVMNIIGNIEGKTAILIDDIIDTAGTITLAANALVENGASEVYACCTHPVLSGPAIERIQNSNIKELVVTNSIVLPEEKKIDKVHELSVAPLIGEAIIRVYEEESVSVLFN | not soluble
MNAAVVRRTQEALGKVIRRPPLTEKLLSKPPFRYLHDIITEVIRMTGFMKGLYTDAEMKSDNVKDKDAKISFLQKAIDVVVMVSGEPLLAKPARIVAGHEPERTNELLQIIGKCCLNKLSSDDAVRRVLAGEK | soluble
MSLAQLEHALQHDLQRLAHGGEPWVRPRVHPAGHVYDVVIVGAGQSGLGAAFALQRERVHNVLVIDENPPGQEGPWVTYARMQTLRTPKQITSIDLGVPTLTFRAWWEAQHGAAGWDALDKIPRGTWMDYLRWYRAALRLPVRNATQLVRIEPDAAPGIHRLHLAMGAPLMARKIILATGIQGGGQWQVPEWITQALPAQRYAHTSGPIDYAALAGKRVGILGGGASAFDNACFALDQGVARAEVFVRRAALPRVNPIRHMEQAGIIPRFAALPDADKYRMMASFFGRNQPPTNDTFQRACAHAGFALHLDAPWLGVEEHNDVVVVRTPQGEHRFDFLAIATGLVTDPRLRPELAALSGRIACWADRYQAPPGQANPVLDAHPYLGPGFELLPRTPDDAAAVDGLFAFNYSALINHGLSAAALSGLKVALPRLARAVADQLFLDDRQAMVEAYLGYDQAEFVGQWPQPTQAVALEHHHHHH | soluble
MTAVKHTTESTFAKLGVRDEIVRALGEEGIKRPFAIQELTLPLALDGEDVIGQARTGMGKTFAFGVPLLQRITSGDGTRPLTGAPRALVVVPTRELCLQVTDDLATAGKYLTAGPDTDDAAAVRRRLSVVSIYGGRPYEPQIEALRAGADVVVGTPGRLLDLCQQGHLQLGGLSVLVLDEADEMLDLGFLPDIERILRQIPADRQSMLFSATMPDPIITLARTFMVRPTHIRAEAPHSSAVHDATEQFVYRAHALDKVELVSRVLQARDRGATMIFTRTKRTAQKVADELTERGFAVGAVHGDLGQLAREKALKAFRTGGIDVLVATDVAARGIDIDDVTHVINYQCPEDEKMYVHRIGRTGRAGRTGVAVTLVDWDELPRWSMIDQALGLGSPDPAETYSNSPHLYAELAIPATAGGTVGPARKSQGRRRDTDCDGQKTAQHARNTPRRRRTRGGKPVTGHPGTNPISSPIVGGDATSEPGSGTASDSGSDVVSGSRSGNGEAARRRRRRRRRPTHAQDGFAARAN | soluble
ADGNNIKAPIETAVKPPHRTEDNIRDEARRNRSNAVNPFSAKYVPFNAAPGSTESYSLDEIVYRSRSGGLLDVEHDMEALKRFDGAYWRDLFDSRVGKSTWPYGSGVWSKKEWVLPEIDDDDIVSAFEGNSNLFWAERFGKQFLGMNDLWVKHCGISHTGSFKDLGMTVLVSQVNRLRKMKRPVVGVGCASTGDTSAALSAYCASAGIPSIVFLPANKISMAQLVQPIANGAFVLSIDTDFDGCMKLIREITAELPIYLANSLNSLRLEGQKTAAIEILQQFDWQVPDWVIVPGGNLGNIYAFYKGFKMCQELGLVDRIPRMVCAQAANANPLYLHYKSGWKDFKPMTASTTFASAIQIGDPVSIDRAVYALKKCNGIVEEATEEELMDAMAQADSTGMFICPHTGVALTALFKLRNQGVIAPTDRTVVVSTAHGLKFTQSKIDYHSNAIPDMACRFSNPPVDVKADFGAVMDVLKSYLGSNTLTS | soluble
MLQCIFLISDSGEVMLEKQLTGHRVDRSICAWFWDQYISQGDSFKALPVIASPTHYLFQIVRDGITFLACSQVEMPPLMAIEFLCRVADVLSEYLGGLNEDLIKDNFIIVYELLDEMIDNGFPLTTEPSILKEMIAPPNLVSKMLSVVTGNASNVSDTLPSGAGSCVPWRPTDPKYSSNEVYVDLVEEMDAIVNRDGELVKCEIYGEVQMNSQLTGFPDLTLSFANPSILEDMRFHPCVRYRPWESHQVLSFVPPDGEFKLMSYRVKKLKNTPVYVKPQITSDSGTCRISVLVGIRSDPGKTIESITLSFQLPHCVSSADLSSNHGTVTILSNKTCTWTIGRIPKDKTPCLSGTLALEPGLERLHVFPTFKLGFKIMGIALSGLRIEKLDLQTIPPRLYKGFRAQTRAGEFDVRL | soluble
MGSDKIHHHHHHMILSKTGIRHKEDLVPPANGVDVGIIKIGDGRVMSVTTDPFYFDPVFGYEDSAWFAYHILASDLLTSGANPDYMTVDLNLPLSMTDEEISRMWNAFTEEAARFGTSIITGHTARYAGTSFPMIGGITAMGFIGEDEYVTSAMARPGDKVVLTKTPAIEAAALLTRLFPGTIKAKLGDELFSYGVDLFRKLTTVHESLVCKRFGLRTRVTAMHDVTEGGLLGALFEIADSSGNGIRIHEDSIKVDDYVKRVCSIFSIDPLMAISEGALLITVKPDHAEDLVSSLKANGIDANVIGEMTADPSERIIVGREKRTIGPPQKDPFWTAVEFGISEDWK | not soluble
GEFAQECQNLEVERQRRLERIKQKQSQLQELILQQIAFKNLVQRNRHAEQQASRPPPPNSVIHLPFIIVNTSKKTVIDCSISNDKFEYLFNFDNTFEIHDDIEVLKRMGMACGLESGSCSAEDLKMARSLVPKALEPYVTEMAQGTVGGVFITTA | soluble
MGSDKIHHHHHHMPLYRHLDLQSRYVTSRPVDVWLPAATGDQPLPVIYMHDGQNLFDPTLRADGEVWAVDQAIERLCATYNWPGAIVVGVWCTDQRWREYAPQKPFAALRQTRGWESIVERMGGEPVSDAYLSFLVEEVRPFVDRHYPTLPDASNTFLMGSSMGGLISLYGVCQYPDLFAGAGCLSTHWPAGGNLLVDELAALLPPAGRHRFYFDYGTVGLDAEYEPFQQRMDRLLEQAGYRHGHDWLTRKFPGAAHNEAAWRARVADVIAFLVLGRVAGE | not soluble
MNNTDYMIHLLARTIKTGKDELITPLIIQLSDMQVSRDLLEKHNLPALVAEYAPFNEAAKSLSKSVLAWKYEEIAQEMPQLLKEFVQIAKEKRVPEEFMVRLVTSLMDFDDLDTVRSCLEILNHFEFSLDEYEELGIYRKATQFEGQFRDADEIIAKVDVLLLQDEILEEDEAEVEADDLIGHAEENEEEENDFSDDESVISETESGIYTDEELELEDHFEAVRKEDRKDQVMTEICMMLLAGYIRSGNSEVISAAIKFTWAFDYSLEMYQKYDIQNLIYNFGVHNDDAELLMNHIKELQARELFNENRKFFKRFLRTCMEEKTITDSVLSYLKGFLENGDDYMVSCTLKFLLGMPITLSQFKTSHVEACLENLESGPSAQLGFMLKMKIQKLEHSEKS | not soluble
SLEECVCENYKLAVNCFVNNNRQCQCTSVGAQNTVICSKLAAKCLVMKAEMNGSKLGRRAKPEGALQNNDGLYDPDCDESGLFKAKQCNGTSTCWCVNTAGVRRTDKDTEITCSERVRTYWIIIELKHKAREKPYDSKSLRTALQKEITTRYQLDPKFITSILYENNVITIDLVQNSSQKTQNDVDIADVAYYFEKDVKGESLFHSKKMDLTVNGEQLDLDPGQTLIYYVDEKAPEFSEG | not soluble
KEMKYVVDTSVVISGRVTEMLESGEIKGTIIVPEAVMAELEAQANFGKMTGFQGLSEIEKLTKLAKDKGFEVIFAGERPKLEHIRLAKGGEIDNLIREVAAEFDAVLVTSDRVQHLVARAKGIETIYVRPRVVRPENTRIMSFFTP | not soluble
MNNKYQMGVSTNLKYKGISLGIDFDIRQGGVMYSRTKDINYFTGNAIQTAYNDRNPLIVPNSVNKIVNGENVTYVENTTPITSSNIYKYWGDGGSDMGSCFLVDKSYVKLRSVVLGWDLPKRWLAKTPFQAVKVSAYGNNLFVWTPSSNTFIDPEMTSFGNDLEGNYGEYTANPSSRRFGFNLMVKF | not soluble
MNIIDFNKPVKRSFRGNTAPAPPLEKVLTVILKTDVPVLMGICSDGLRSNSAILGGEFQAEYFSGSVLSGGGNVLVELSSELAFLETRFTLITQLGELINVECKGVLLMDEEGQQELQSGVWPISEGHYQCTCTPRFQVSLGPNDWLEKSAFIGKIDYIQRNETLISFYRMKL | not soluble
MNKNVMVKGLTALTILTILTSLGFAENISNQPHSIAKAEKNVKEITDATKEPYNSVVAFVGGTGVVVGKNTIVTNKHIAKSNDIFKNRVSAHHSSKGKGGGNYDVKDIVEYPGKEDLAIVHVHETSTEGLNFNKNVSYTKFADGAKVKDRISVIGYPKGAQTKYKMFESTGTINHISGTFMEFDAYAQPGNSGSPVLNSKHELIGILYAGSGKDESEKNFGVYFTPQLKEFIQNNIEK | not soluble
MCAHEGKQYKNDTTFISQGSFRMKCVTFKNLTSTLEVISCITPAGVEISIGTQLEEGDKVFECTPGNVTLKSTPGQTGKCRGVYSVGDTWVEDSFRLLCEPYGKVNLKSCISKEGVEIPLGEARRVPAGYAMECVTVNGNVALQTAKTFDCETGTGEIKKFGDTWNEGNFVRRCANYGVSAIIGCYADGVGSIGLNQNMTSGDFLYMCINQNEQFKFRTLKAT | not soluble
MGSDKIHHHHHHMKPPIQLPLGVRLRDDATFINYYPGANAAALGYVERLCEADAGWTESLIYLWGKQGVGRSHLLQAATHRFQQRGEPAVYLPLAQLLDRGVELLDYLAQYELVCIDDLHVIAGKADWEEAMFHLFNRLRDSGRRLLLAASASPRELPIKLPDLKSRLTLALVFQMRGLSDEDKLRALQLRASRRGLHLTDEVGHFILTRGARSMSALFDLLERLDQASLQAQRKLTIPFLKETLGW | not soluble
MSLEVIKHDGPGRLGVIRLEPPVQTPALAGVDFTISPFNSYFNPKEYHDYDFNLAPSIPLSYYTPDEVIEKALKRIETVDYSKFNTFYFPALKRDKYYPRFVELIEENDFDAIYIGNSKVMIKDYRGFVATLRILREKFPNAVLITDLEPFFYPLAVYLGVDAFDVRSLKIYSYEGLGFTPFSPVIWDRPNDPIEFAREMIKIIKIAIQEGKLRYLVENFLPTVMNVGILRIADKEHGDYLEKYTPVHDKTVVFISEHSISRPEVFRWRKRIEERFEPPKGIDLLLIFPCSAKKPYSRSRSHMMYRKVMKEALGEKVHRVHELVVTSPYGVVPREWEWLAKYDIVVTGHWSESEVRFAGELLAQTIEKYPDIPIVAHVEGGYREAVKYAMELVNRDVIFTAVGSSTISKESLDKLKKTLKEFDLRDEGHHHHHH | not soluble
AIAYRDRYPYYDGEVYDDTGVVFPENIERRPNGRRVIVEEPEDYGMPNDRGVEDEYDERNPFRGGHSMQPWNQSPFDHFDRLFETPFAGLDRGSFGGMFGNIEQSLRRLEEDFARGAGRGNAHVYSFSSKKHFGPEGEVYEESTTTTREGNRTEVRRHLKDSAAGNEEYAWKREIDGRGREVIRRRDGSGQEVTKENYYNLTPEERAQFEQQWRTLAREGLDWRGSEGNNASLPQLSDRSSWMEHDRNEHRGGLGGFFRKLFKHD | soluble
